pKd: −log10 of the molar value.
Target: FLRT^LRR (SPR test of FLRT^LRR-FLRT^LRR binding)
Test: SPR

- pKd: < 4.00
Substance: FLRT^LRR (SPR test of FLRT^LRR-FLRT^LRR binding)

Source: PMC4210639
